Source: US20040106120A1, “Diagnosis and treatment of disease” (priority 2000, published 2004)
Each block holds one molecule with its values, some of them ahead of it.

Key:
[1] = system: corneodesmosomes in stratum corneum tape strips; assay: Treatment of tape strips from psoriatic skin with proteases, corneodesmosome density by electron microscopy; design: species or system human; details: 22-50 nM recombinant SCCE or SCTE, 1-6 h at 37° C
Experimental: Tape strips are obtained according to a method described by Guerrin et al, 1998.
Small pieces of tape strips from control patients along with patients suffering from the skin conditions eczema, psoriasis, dermatitis and psoriasis are fixed for 2 h at 4° C. in Karnovsky fixative (2% paraformaldehyde, 2.5% gluteraldehyde in 0.1M phosphate buffer, pH 7.4). The samples are then washed three times in 0.1M phosphate buffer (pH7.4) containing 10% sucrose for 30 minutes each at 4° C.
Secondary fixation is carried out in aqueous 2% osmium tetroxide solution for 1 hour at room temperature. Dehydration is through a graded series of ethanol at room temperature (75% ethanol for 15 minutes; 95% ethanol for 15 minutes; 2 washes of 100% ethanol for 15 minutes; 100% ethanol dried over anhydrous copper sulphate for 15 minutes).
For resin embedding, samples are first placed in the intermediate solvent, propylene oxide, for two changes of 15 minutes duration. This is followed by infiltration in a 50:50 mixture of propylene oxide:araldite resin overnight at room temperature. […]
Ultrathin sections (70-90 nm) are cut on an ultramicrotome. […] Electron micrographs are recorded on Agfa Scientific 23D56 EM film.
Corneodesmosome density (area occupied by corneodesmosomes divided by total area of micrograph) is measured on electron micrographs of tape strips of each condition. […]

Desmoglein = assay: Cleavage of adhesion proteins from human epidermis by recombinant SCCE/SCTE (immunoblot); assay type: biochemical; details: human epidermis protein extract incubated with active recombinant enzyme at 37 C
Experimental: (§1) Recombinant ProSCCE is produced and purified as described above. Recombinant ProSCCE is activated with agarose-bound trypsin, as described in Brasttsand & Egelrud, 1999.
(§2) Proteins are extracted from human epidermis in the presence of a detergent (TENP-40 buffer extract) and incubated with active SCCE for 37 C. for 4 h. The reactions are stopped by boiling for 2 mins after Laemmli's sample buffer is added. The proteins are immunoblotted with antibodies against corneodesmosomal proteins.

Envoplakin = target: T1, Envoplakin (Homo sapiens, UniProt Q92817); assay: as above; assay type: biochemical; details: human epidermis protein extract incubated with active recombinant enzyme at 37 C
T1 construct: The native form of Envoplakin has a molecular weight of between 124-209 kDa; from tissue; host or cells: human epidermis (TENP-40 buffer extract)
T1 sequence (Q92817 whole entry): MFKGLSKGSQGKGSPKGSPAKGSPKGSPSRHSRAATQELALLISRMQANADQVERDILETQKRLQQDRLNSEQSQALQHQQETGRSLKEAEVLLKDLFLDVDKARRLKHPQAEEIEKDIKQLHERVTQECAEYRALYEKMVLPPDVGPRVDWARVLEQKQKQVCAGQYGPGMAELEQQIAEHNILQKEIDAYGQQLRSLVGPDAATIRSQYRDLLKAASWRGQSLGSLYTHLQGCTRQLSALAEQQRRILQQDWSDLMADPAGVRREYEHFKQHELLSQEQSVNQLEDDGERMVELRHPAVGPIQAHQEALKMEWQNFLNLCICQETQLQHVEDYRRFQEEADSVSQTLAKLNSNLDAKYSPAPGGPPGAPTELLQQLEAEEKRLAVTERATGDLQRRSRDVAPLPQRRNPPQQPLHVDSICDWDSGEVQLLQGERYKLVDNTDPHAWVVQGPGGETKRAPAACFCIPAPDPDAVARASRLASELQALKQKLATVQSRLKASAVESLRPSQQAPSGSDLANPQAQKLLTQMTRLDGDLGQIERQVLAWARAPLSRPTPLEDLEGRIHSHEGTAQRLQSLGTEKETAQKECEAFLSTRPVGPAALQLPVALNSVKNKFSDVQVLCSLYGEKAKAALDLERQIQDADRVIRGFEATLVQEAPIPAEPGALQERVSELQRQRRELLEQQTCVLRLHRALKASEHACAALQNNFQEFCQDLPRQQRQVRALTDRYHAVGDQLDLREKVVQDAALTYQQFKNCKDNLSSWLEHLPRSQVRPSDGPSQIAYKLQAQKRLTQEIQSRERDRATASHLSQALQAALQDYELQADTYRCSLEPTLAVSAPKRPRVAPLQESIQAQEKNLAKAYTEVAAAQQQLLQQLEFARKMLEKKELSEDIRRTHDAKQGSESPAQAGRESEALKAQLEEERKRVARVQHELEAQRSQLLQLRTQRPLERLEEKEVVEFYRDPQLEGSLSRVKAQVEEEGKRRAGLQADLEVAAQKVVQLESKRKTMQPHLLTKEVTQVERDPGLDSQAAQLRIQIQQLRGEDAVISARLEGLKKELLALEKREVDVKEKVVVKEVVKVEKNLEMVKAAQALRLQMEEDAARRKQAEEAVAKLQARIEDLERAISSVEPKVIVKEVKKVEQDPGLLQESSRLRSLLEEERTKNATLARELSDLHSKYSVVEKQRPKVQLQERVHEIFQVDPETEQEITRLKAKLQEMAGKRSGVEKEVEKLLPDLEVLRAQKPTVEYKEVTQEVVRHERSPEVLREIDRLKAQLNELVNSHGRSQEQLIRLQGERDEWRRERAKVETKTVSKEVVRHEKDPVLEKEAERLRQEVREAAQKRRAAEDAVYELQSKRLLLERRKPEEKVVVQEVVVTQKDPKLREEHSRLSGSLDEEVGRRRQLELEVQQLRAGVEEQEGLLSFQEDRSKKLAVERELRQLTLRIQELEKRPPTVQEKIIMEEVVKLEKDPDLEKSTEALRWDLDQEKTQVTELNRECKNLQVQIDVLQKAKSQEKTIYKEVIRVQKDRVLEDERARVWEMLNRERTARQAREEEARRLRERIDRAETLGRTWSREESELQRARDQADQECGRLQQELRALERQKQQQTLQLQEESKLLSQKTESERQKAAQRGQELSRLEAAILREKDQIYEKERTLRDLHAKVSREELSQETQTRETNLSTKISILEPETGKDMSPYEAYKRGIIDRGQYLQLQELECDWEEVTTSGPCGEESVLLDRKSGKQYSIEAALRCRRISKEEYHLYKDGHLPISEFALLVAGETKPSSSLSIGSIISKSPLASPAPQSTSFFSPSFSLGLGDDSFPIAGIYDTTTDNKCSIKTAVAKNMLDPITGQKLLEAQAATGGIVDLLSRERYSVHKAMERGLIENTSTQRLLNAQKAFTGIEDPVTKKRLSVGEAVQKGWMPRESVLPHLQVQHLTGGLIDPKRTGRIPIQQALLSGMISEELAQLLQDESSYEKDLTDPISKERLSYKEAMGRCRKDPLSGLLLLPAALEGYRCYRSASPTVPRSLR
Experimental: as §1, §2

Desmoplakin = assay: as above; assay type: biochemical; details: human epidermis protein extract incubated with active recombinant enzyme at 37 C
Experimental: as §1, §2

Corneodesmosin = target: T2, Corneodesmosin (Homo sapiens, UniProt Q15517); assay: as above; assay type: biochemical; details: human epidermis protein extract incubated with active recombinant enzyme at 37 C
T2 construct: The native form of corneodesmosin has a molecular weight of between 50 and 56 kDa; from tissue; host or cells: human epidermis (TENP-40 buffer extract)
T2 sequence (Q15517 33-529): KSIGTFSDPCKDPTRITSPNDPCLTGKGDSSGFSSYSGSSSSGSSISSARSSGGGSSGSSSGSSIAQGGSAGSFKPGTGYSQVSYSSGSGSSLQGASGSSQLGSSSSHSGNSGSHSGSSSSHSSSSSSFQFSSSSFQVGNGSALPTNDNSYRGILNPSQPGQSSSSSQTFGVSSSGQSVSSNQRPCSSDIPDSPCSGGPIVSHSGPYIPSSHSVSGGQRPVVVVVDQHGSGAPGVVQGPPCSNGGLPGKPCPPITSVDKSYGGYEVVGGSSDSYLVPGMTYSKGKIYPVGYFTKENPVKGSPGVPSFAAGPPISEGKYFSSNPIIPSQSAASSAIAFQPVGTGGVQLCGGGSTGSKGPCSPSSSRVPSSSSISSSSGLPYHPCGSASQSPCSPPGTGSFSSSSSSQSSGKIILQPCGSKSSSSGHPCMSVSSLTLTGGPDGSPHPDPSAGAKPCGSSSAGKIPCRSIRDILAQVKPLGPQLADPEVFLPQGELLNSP
Experimental: as §1, §2

Desmocollin = assay: as above; assay type: biochemical; details: human epidermis protein extract incubated with active recombinant enzyme at 37 C
Experimental: as §1, §2

Plakoglobin = target: T3, Plakoglobin (Homo sapiens, UniProt P14923); assay: as above; assay type: biochemical; details: human epidermis protein extract incubated with active recombinant enzyme at 37 C
T3 construct: The native form of plakoglobin has a molecular weight of between 85 kDa and 75 kDa; from tissue; host or cells: human epidermis (TENP-40 buffer extract)
T3 sequence (P14923 1-745): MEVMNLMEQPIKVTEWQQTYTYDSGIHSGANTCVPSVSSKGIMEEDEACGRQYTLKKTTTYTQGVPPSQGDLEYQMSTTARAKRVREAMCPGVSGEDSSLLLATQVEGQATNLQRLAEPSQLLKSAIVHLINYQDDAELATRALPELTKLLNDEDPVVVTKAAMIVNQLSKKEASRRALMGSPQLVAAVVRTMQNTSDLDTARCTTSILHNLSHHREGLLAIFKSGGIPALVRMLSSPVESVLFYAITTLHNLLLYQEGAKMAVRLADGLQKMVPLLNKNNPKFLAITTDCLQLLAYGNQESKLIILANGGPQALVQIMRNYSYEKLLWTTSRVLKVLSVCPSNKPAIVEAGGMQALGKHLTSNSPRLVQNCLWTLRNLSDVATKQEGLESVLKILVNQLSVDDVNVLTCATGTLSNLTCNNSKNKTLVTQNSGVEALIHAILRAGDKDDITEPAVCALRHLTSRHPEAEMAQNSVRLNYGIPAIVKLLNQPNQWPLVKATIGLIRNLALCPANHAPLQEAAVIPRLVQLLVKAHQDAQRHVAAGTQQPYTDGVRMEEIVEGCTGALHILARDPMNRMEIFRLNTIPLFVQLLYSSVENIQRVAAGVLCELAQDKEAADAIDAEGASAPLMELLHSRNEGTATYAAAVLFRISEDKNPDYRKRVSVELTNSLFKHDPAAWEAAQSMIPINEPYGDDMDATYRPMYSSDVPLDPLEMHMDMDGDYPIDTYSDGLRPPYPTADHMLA
Experimental: as §1, §2

cultured skin equivalent = assay: Treatment of skin equivalents with other protease inhibitors for 24 h, light and electron microscopy; assay type: cell-based; details: SLPI 500 nM, cultured for 24 h
Experimental: Skin equivalent (+ and − inhibitor) is cultured with the inhibitor for 24 h. Skin equivalent are taken the preparation of histological sections. Sections are then analysed by light and electron microscopy.
SLPI (500 nM) is added to cultured skin equivalent, and cultured for 24 h. Skin equivalent (+ and − SLPI) are taken the preparation of sections. Sections are then analysed in light and electron microscopy.
SCCE antibody is added is added to cultured skin equivalent, and cultured for 24 h. Skin equivalent (+ and − SCCE antibodies) are taken the preparation of sections. Sections are then analysed in light and electron microscopy.
SCTE antibody is added is added to cultured skin equivalent, and cultured for 24 h. Skin equivalent (+ and − SCTE antibodies) are taken the preparation of sections. Sections are then analysed in light and electron microscopy.

[2] = Topical protease inhibitor in emollient cream on volunteer's arm skin for 14 days, biopsy histology; assay type: in vivo; details: human volunteer, emollient cream applied daily to arm for 14 days under occlusion
From the text: SPLI protease inhibitor is extracted from normal human skin of a volunteer. Alternatively, a nucleic acid sequence encoding the protease inhibitor from the individual is cloned using PCR, or library screening. The individual's protease inhibitor sequence is cloned into an expression vector, and recombinant protease inhibitor expressed and purified using conventional and known means.
The inhibitor is then formulated in an emollient cream base. Two fingertip units of this formulation are applied to an area of the volunteer's skin on the arm measuring 2×2 cm. The area is covered with a plastic capsule which is secured in place with a cotton bandage. The cream is reapplied to the same area each day for 14 consecutive days.
On day 14 the cup is removed and a 1×0.5 cm ellipse skin biopsy is taken from the treated area and a similar biopsy taken from an untreated area on the opposite arm.

proteolysis of Envoplakin (Envoplakin): proteolysed
proteolysis of Corneodesmosin (Corneodesmosin): proteolysed
proteolysis of Plakoglobin (Plakoglobin): proteolysed
B1: SCCE: recombinant Stratum Corneum Chymotryptic Enzyme, activated with agarose-bound trypsin (protein, UniProt P49862 30-253, looked up)
Kallikrein-7: IIDGAPCARGSHPWQVALLSGNQLHCGGVLVNERWVLTAAHCKMNEYTVHLGSDTLGDRRAQRIKASKSFRHPGYSTQTHVNDLMLVKLNSQARLSSMVKKVRLPSRCEPPGTTCTVSGWGTTTSPDVTFPSDLMCVDVKLISPQDCTKVYKDLLENSMLCAGIPDSKKNACNGDSGGPLVCRGTLQGLVSWGTFPCGQPNDPGVYTQVCKFTKWINDTMKKHR
modifications: activated with trypsin
number of corneodesmosomes in treated versus untreated stratum corneum [1]: decrease significantly
proteolysis of Desmoglein (Desmoglein): proteolysed
proteolysis of Desmoplakin (Desmoplakin): proteolysed
proteolysis of Desmocollin (Desmocollin): proteolysed

B2: SLPI: Secretory Leukoprotease Inhibitor protein added to cultured skin equivalent (protein, UniProt P03973 26-132, looked up)
Antileukoproteinase: SGKSFKAGVCPPKKSAQCLRYKKPECQSDWQCPGKKRCCPDTCGIKCLDPVDTPNPTRRKPGKCPVTYGQCLMLNPPNFCEMDGQCKRDLKCCMGMCGKSCVSPVKA
effect on stratum corneum thickness and skin barrier of skin equivalent (cultured skin equivalent): increase the thickness of the stratum corneum

B3: SPLI protease inhibitor: SLPI extracted from normal human skin or recombinant, formulated in an emollient cream base (protein, UniProt P03973 26-132, looked up)
Antileukoproteinase: B2 Antileukoproteinase
modifications: emollient cream formulation
notes: SLPI extracted from normal human skin or recombinant, formulated in an emollient cream base
histology of stratum corneum, treated biopsy compared with control [2]: thickening of the stratum corneum with loosely adherent scales
histology of viable epidermis, treated biopsy compared with control [2]: parakeratosis and thickening
